Reference: the supplement of paper PMC9170038

Test system: K4 kissing-loop RNA reporter
Experiment: apparent KD of K4 kissing-loop reporter; higher = weaker reporter binding
Details: Eterna round: R107
Experimental: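 RNA-MaP round R107: designed RNA switches with theophylline, tryptophan, arginine or FMN aptamers are transcribed on-chip within common flanks. They are titrated with a labelled K4 kissing-loop RNA reporter in RNA-MaP buffer (100 mM Tris pH 7.5, 80 mM KCl, 4 mM MgCl2), without ligand or with the indicated ligand. Median apparent KD per design.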

[1] = input ligand: theophylline 20 uM
[2] = input ligand: tryptophan 2.4 mM
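Further: bound reporter read as fluorescence of individual clusters on recovered sequencing chips by microscopy, with normalized cluster intensities fitted with a binding model.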

Sequence	apparent KD of K4 kissing-loop reporter (input ligand: FMN 200 uM)	apparent KD of K4 kissing-loop reporter (input ligand: arginine 13.2 mM)	apparent KD of K4 kissing-loop reporter (input ligand: none)	apparent KD of K4 kissing-loop reporter [1]	apparent KD of K4 kissing-loop reporter [2]
GUACGCUCUCGAGUGAUGUUCGGUAAUAGAGAGGAUAUCGCUUUUGCGAGAAGGCUCUGAAUGAGGAAACUCGUUCUGAGUGUAC [FMN A 19]	436 nM	362 nM	389 nM	358 nM	419 nM
GUAUACAUAGAUCACCUUGUAGUGAUGUUGCGAGGACCGGUACGGCCGCCACUCGAAGUACGAAAGUACAAAGAUCUAUGUAUAC [Exclusion Trypto A - 1]	251 nM	131 nM	258 nM	136 nM	45.9 nM
GUAUCGCUAGGAGGAUAUGUCGUUUUUCAUAGCAAUGGCUGUGCGGAGUGAUGUUCCGAUUUACCGGCAGAAGGCCUAGUGAUAC [FMN B 28]	118 nM	104 nM	92.9 nM	106 nM	89.8 nM
GUAUGUGGAAACACGUACUUGUAUCCUAGGCAGGAUAUGCGGAAACGCAGAAGGGCCACCGGCGAGUUUAUCCAGUGAUGUUGGA [Ex FMN A 9]	245 nM	257 nM	291 nM	251 nM	237 nM
GUAUGUUCGAAAGAACGUACAUCUUCGGAAGGAGCGCGUGAAAACGCAGGUAGGUCGCCGAAGUUAUUAGGUAGUGAUGUUACCU [Arginine A K4 8]	128 nM	99.1 nM	101 nM	109 nM	114 nM
GUAUUUCCCUCGGAUACCAGUCAUCAUGAGUAUAGUGAUGUUGUACGUCCGGAUGAUUUUGACCCUUGGCAGCCGUCUCCUUGAA [theeternabot_sameState_KL_Theo_B_49]	515 nM	371 nM	593 nM	497 nM	540 nM
GUCAAGGGUGCGGCCGCCACUUCUAGUGAUGUUAGUUUGUCUUCGUUCAACCGGCGUCUGCACGCAAGGACCGGGCACCAGCGAC [theeternabot_exclusion_KL_Trp_B_10]	552 nM	350 nM	567 nM	636 nM	360 nM
GUCCCAGUGAUGUUGGUAGGCGAGCGGGAUACCAGCGAAGACUCACGCCCUUGGCAGCCCACAUAUCCCGCGUAGGGAUUAGCUC [Same State - Theophylline A (Freestyle 21)]	364 nM	315 nM	431 nM	415 nM	347 nM
GUGAGGAUCAGAAGGAGCGUCGGCAAUCCAGUGAUGUUGGGUGUUGGUUAUAUUUAACGACGACAGGUAGGUCGCUGAUUUUCAA [Same State Arginie B GF 21]	163 nM	107 nM	163 nM	190 nM	140 nM
GUGCAGUGAUGUUGCACGAGGAAAGACGAUACCAGCCGUAAAUAAGGCCCUUGGCAGCGUAAGCUAGCAUAAAGUAUGCUAGUCC [Onarve]	108 nM	102 nM	103 nM	77.1 nM	85.2 nM
GUGCAGUGAUGUUGCACGAGGAAAGACGAUACCAGCCGUAAAUAUGGCCCUUGGCAGCGUGGGCUAGCACAAAAUGUGCUAGUCU [Zareatza]	127 nM	109 nM	116 nM	107 nM	98.2 nM
GUGCGGCUAGUGAUGUUGGUUGCGUGGGAAGGAGCGCAGAAACAUGCAGGUAGGUCGCCCACAUCUCUGAUAAAAGAUUAAUUCA [Riares]	304 nM	254 nM	235 nM	338 nM	239 nM
GUGGUUUACGUAGGAUAUCGGUGAUGAGUAAAUGGAGUGAUGUUCCGAGAUUGAAUAUGAGAUGAGCGAGAAGGGCGGUUUAUGC [FMN B Same State; Euporia Solution 3]	60.8 nM	77.3 nM	63.1 nM	89.7 nM	54.7 nM
GUGUGUGAAAACACGCACUUAUAUCCUAGGCAGGAUAUGCGGAAACGCAGAAGGGCCACCGGCGAGAAAAUCCAGUGAUGUUGGA [Ex FMN A 6]	281 nM	245 nM	273 nM	192 nM	251 nM
GUUACGCAUGGAAGGAGCGCACUCCGAUUGGGCGACACAGUGAUGUUGUGGUUCGUUCGAAUGCAGGUAGGUCGCCAUGUGUAAC [Ex Arginine B K4 20]	181 nM	153 nM	140 nM	153 nM	142 nM
GUUACGCAUGGAAGGAGCGCAGGCUCAACAAAUAGCUCAGUGAUGUUGAGCAAAUUAAAACUGCAGGUAGGUCGCCAUGUGUAAC [Ex Arginine B K4 22]	399 nM	399 nM	508 nM	371 nM	422 nM
GUUCUGAUGGAAACAUCGGAACAUACUGAUACCAGUAUCGAUAGAUACCCUUGGCAGCAGAAUCAGUAAUAACGAGUGAUGUUCG [Ex Theophylline A K4 2]	275 nM	247 nM	293 nM	273 nM	257 nM
UAACAGUCUACGGCCGCCACUGACAAUCGGCAAGCAACAUGUGGGUGCGUAGUGAUGUUACAUAUCAGGACCGGGUAAGACAAAU [theeternabot_sameState_KL_Trp_B_32]	327 nM	392 nM	235 nM	345 nM	438 nM
UAACGGCAACAAGGAUAUCCCAGUGAUGUUGGGAGAUAUUGACUAAGGAGACAUGAUAGGCAUAAUGGAGAAGGUGUGUUGGGAG [theeternabot_exclusion_KL_FMN_B_19]	159 nM	116 nM	142 nM	131 nM	138 nM
UAACUGCAGUGAUGUUGCAGAUGUCCUGACUAGGAUAUCAGGAAACUGAGAAGGAGUCCCUUCUACUGCAACAAGAAGGAGGACA [[K1]-[K2]-[F1]'-[F1]-[F2]-[F2]'-[K]'-[F]''_Design2]	396 nM	347 nM	436 nM	391 nM	408 nM
UAACUUGCAGUGAUGUUGCAAGAACUGGAUACCAGCAUGGAAACAUGCCCUUGGCAGCCAGAAGGUAUCCUCUUGCAUAGAUACU [Design3]	216 nM	178 nM	195 nM	220 nM	192 nM

Sequence	apparent KD of K4 kissing-loop reporter (input ligand: FMN 200 uM)	apparent KD of K4 kissing-loop reporter (input ligand: arginine 13.2 mM)	apparent KD of K4 kissing-loop reporter (input ligand: none)	apparent KD of K4 kissing-loop reporter [1]	apparent KD of K4 kissing-loop reporter [2]
UAAGAAUAAGUAGCAGUGAUGUUGCUACUACGAGGACCGGUACGGCCGCCACUCGAGCCGUACAAAGUAGCAACUAGUACGAAUA [(H1)-(H2)-(Trp1)-(Trp2)-(T)'-(H)'-(T)'']	231 nM	194 nM	223 nM	246 nM	365 nM
UAAGAAUAAGUAGCAGUGAUGUUGCUACUGCGAGGACCGGUACGGCCGCCACUCGAGUCCUCGAAACAUCACUGAACGAGGAAUA [whbob_SS_Tryp_A_m11]	298 nM	190 nM	193 nM	319 nM	270 nM
UAAGAGGACCACUACAAGAGUCCUCGAAUACGAGGACCGGUACGGCCGCCACUCGAUAACUUGUAGUGAUGUUGCAAGUAAGAAU [BrourdMod 2 - Jieux - Same State Tryptophan A]	80.4 nM	85.6 nM	85.3 nM	97.4 nM	46 nM
UAAGAUAUGAGGGAUACCAGCCAUAAGGAAAGUGUGAUGAGUGAUGUUCUGACAAGCCAAGGCCCUUGGCAGCUUUAAUAGCAUC [whbob_SS_Theo_B_th76]	271 nM	80.8 nM	164 nM	218 nM	203 nM
UAAUCCUAAUGAUAAUAAUCAAGUGGUGGACGAGGACCGGUACGGCCGCCACUCGAAAAUGCAGUGAUGUUGUAAUACGGAUAAU [Exclusion - Tryptophan A (Freestyle 3)]	288 nM	460 nM	372 nM	541 nM	247 nM
UACAUCGAGCAGAGUGAUGUUUUGUGCGAUACCAGCAAGUGCAAGUGCCCUUGGCAGCGCAAGCGGUUGUAUGUAGGACCGGACG [theeternabot_exclusion_KL_Theo_A_21]	433 nM	647 nM	657 nM	964 nM	432 nM
UACAUUUUAUUAACACUAAAUACAACUGAAGGAGCGACAAUAAAGUCAGGUAGGUCGCAGAAUAAAUGAGUGAUGUUCAUUAUUG [JR_ExcArginiA_Sub016]	60.2 nM	101 nM	63.8 nM	92.8 nM	51.2 nM
UACGCUUACUUGCGCGGUCCGAUUAACGAUACCAGCGAAGAAGCCCGCCCUUGGCAGCGUUAUAGAGUGAUGUUCACGGAGAUUA [theeternabot_sameState_KL_Theo_A_12]	1100 nM	872 nM	989 nM	1070 nM	874 nM
UAGGAGUGAUGUUCCAUAUCUUGAGCCGAAGGAGCGCCUUUCUAGGCAGGUAGGUCGCGGCAGAAGGUACCAGUGAUGUUGGAAA [Same State Arginine A GF7]	163 nM	171 nM	208 nM	184 nM	145 nM
UAGGCCGCAUACAUUAGAUAAGGUACCGAUACCAGCCUCGCACCAGGCCCUUGGCAGCGGCAUCAAAUGGGUAGUGAUGUUACCU [theeternabot_exclusion_KL_Theo_A_20]	139 nM	135 nM	159 nM	144 nM	136 nM
UAGGCGGGAGAAGGAUAUCUGUGAAACCUGCUGCCCAAUAAGUGAUGUUUAUAAAGGAAGCGUCAUAGAGAAGGUCUAACAAGUA [theeternabot_sameState_KL_FMN_B_1]	512 nM	582 nM	714 nM	642 nM	814 nM
UAGUCAUACAGAGGAUAUCGUAUGAGUGAUGUUCAUACGAUAUAAUCUAAUUGUAUAGAUGUUCGACGAGAAGGCUGUAUGACUA [FMN B Ex t1a]	116 nM	84.5 nM	94.9 nM	91.3 nM	92.6 nM
UAGUCCUAGUGAUCCUUAUCAAGUGGUGGGCGAGGACCGGUACGGCCGCCACUCGACUAUGCAGUGAUGUUGUAAUCCGGACAAU [Exclusion - Tryptophan A (Freestyle 12)]	669 nM	488 nM	633 nM	742 nM	541 nM
UAUAUAGUGACGGCCGCCACUAUAUUAAUGUUUAGGUUAGAGUGAUGUUUUGAUUAAUAUUUUUAUAGGACCGGGUUAUAUGUUA [xerrmullin]	563 nM	314 nM	511 nM	739 nM	428 nM
UAUCGAGUGAUGUUCGAUGUAGUGCAUUCAGAGGAUAUAGGAUGGGCUAGAAGGCUGAAAAGUGCUUCGAGUGAUGUUCGAAGAU [Exclusion FMN A GF 5]	63.8 nM	49.2 nM	80.3 nM	57.6 nM	65.3 nM
UAUGAAGGUGGAGGAUAUUGAUUGAACCUUGGUCAGGAGUGAUGUUCCGGGAAGCCUUGGGUUCAUCGAGAAGGCCAAGGAUAGU [Extra 2]	139 nM	257 nM	254 nM	280 nM	238 nM
UAUUAAGUGACGGCCGCCACUAUGGUGAUUUAUUUGUUUGAGUGAUGUUUUGAUGUUUGAUUUUGUAGGACCGGGUUAUGUGUUA [ttttcmullin]	969 nM	641 nM	735 nM	752 nM	597 nM
UAUUGAUUGUCAGGAUAUCGUAAACGAGUGAUGUUCGUAAAUCGACGAUAGUCGAUAUGAUCUGAACGAGAAGGGACAUUAUUUA [JR_SSFMNB_Sub010]	365 nM	311 nM	388 nM	336 nM	305 nM
UCAGUGAUGUUGAACAAAUAAUGGUUCCUAAAGGAUAUCCACAGAUGGAGAAGGUUAGUAGCGGCUCGCACAUCGUAGGACAAAU [theeternabot_exclusion_KL_FMN_A_1]	767 nM	648 nM	734 nM	602 nM	526 nM
UCCACGCUUAGAGGAUAUCGGAUUAGAGUGAUGUUCUAAAGAAGCCCAGUGAUGUUGGAUGGUAUACGAGAAGGCUGUGGCGUGU [Same State FMN B GF 4]	254 nM	446 nM	386 nM	371 nM	369 nM
UCCACGCUUAGAGGAUAUCGGAUUAGAGUGAUGUUCUAAAGACGCCCAGUGAUGUUGGAUGGUAUACGAGAAGGCUGUGGCGUGU [Same State FMN B GF5]	219 nM	539 nM	551 nM	622 nM	410 nM
